From publication PMC8525636

Experiments:
[1] = biological target: recombinant rat IgA-Fc segment CH2-CH3-TP, C471S mutant; experiment: SEC (size-exclusion chromatography), self-association into poly-rIgA; conditions: parent: est. 32; read off a plot
[2] = biological target: recombinant rat IgA-Fc segment CH2-CH3-TP, C311/471S double mutant; experiment: as above; conditions: parent: est. 32; read off a plot
[3] = biological target: recombinant rat IgA-Fc segment CH2-CH3-TP, C311S mutant; experiment: as above; conditions: parent: est. 32; read off a plot
[4] = biological target: recombinant human IgA1-Fc CH2-CH3-TP, C471S mutant; experiment: SEC (size-exclusion chromatography), self-association into poly-hu-rIgA; conditions: parent: est. 9.0; read off a plot

An other: Distribution (%), poly-rIgA share of SEC AUC [1] of 2.5% was found for “recombinant rat IgA-Fc segment CH2-CH3-TP, wild type (rat rIgA) C471S” in this work.
An other: Distribution (%), poly-rIgA share of SEC AUC [2] of 1.5% was found for “recombinant rat IgA-Fc segment CH2-CH3-TP, wild type (rat rIgA) C311S; C471S” in this work.
An other: Distribution (%), poly-rIgA share of SEC AUC [3] of 28% was found for “recombinant rat IgA-Fc segment CH2-CH3-TP, wild type (rat rIgA) C311S” in this work.
An other: Distribution (%), poly-hu-rIgA share of SEC AUC [4] of 4% was found for “recombinant human IgA1-Fc CH2-CH3-TP, wild type (human rIgA1-Fc) C471S” in this work.
